Experimental data as given in article PMC6366860 (Journal of molecular and cellular cardiology, 2018).

Biological target: F-actin from rabbit skeletal muscle (rabbit, UniProt P68135 1-377)
Test: co-sedimentation

Kd: 10.7 µM
B1: mouse short form C0-C2, C-terminal tagged (mSF1), lacking the 8 amino acid NTE (domain or fragment)
chain: PEPGKKPVSAFNKKPRSAEVTAGSAAVFEAETERSGVMVRWQRDGSDITANDKYGLAAEGKRHTLTVRDASPDDQGSYAVIAGSSKVKFDLKVTEPAPPEKAESEVAPGAPEEVPAPATELEESVSSPEGSVSVTQDGSAAEHQGAPDDPIGLFLMRPQDGEVTVGGSIVFSARVAGASLLKPPVVKWFKGKWVDLSSKVGQHLQLHDSYDRASKVYLFELHITDAQTTSAGGYRCEVSTKDKFDSCNFNLTVHEAIGSGDLDLRSAFRRTSLAGAGRRTSDSHEDAGTPDFSSLLKKRDSFRRDSKLEAPAEEDVWEILRQAPPSEYERIAFQHGVEACHRPLKRLKGMKQDEKKSTAFQKKLEPAYQVNKGHKIRLTVELADPDAEVKWLKNGQEIQMSGSKYIFESVGAKRTLTISQCSLADDAAYQCVVGGEKCSTELFVKEP
